{"source": "patent US20230313190", "target": "T1, Flag-Atxn1-82Q-HA, P54253", "T1 chain": "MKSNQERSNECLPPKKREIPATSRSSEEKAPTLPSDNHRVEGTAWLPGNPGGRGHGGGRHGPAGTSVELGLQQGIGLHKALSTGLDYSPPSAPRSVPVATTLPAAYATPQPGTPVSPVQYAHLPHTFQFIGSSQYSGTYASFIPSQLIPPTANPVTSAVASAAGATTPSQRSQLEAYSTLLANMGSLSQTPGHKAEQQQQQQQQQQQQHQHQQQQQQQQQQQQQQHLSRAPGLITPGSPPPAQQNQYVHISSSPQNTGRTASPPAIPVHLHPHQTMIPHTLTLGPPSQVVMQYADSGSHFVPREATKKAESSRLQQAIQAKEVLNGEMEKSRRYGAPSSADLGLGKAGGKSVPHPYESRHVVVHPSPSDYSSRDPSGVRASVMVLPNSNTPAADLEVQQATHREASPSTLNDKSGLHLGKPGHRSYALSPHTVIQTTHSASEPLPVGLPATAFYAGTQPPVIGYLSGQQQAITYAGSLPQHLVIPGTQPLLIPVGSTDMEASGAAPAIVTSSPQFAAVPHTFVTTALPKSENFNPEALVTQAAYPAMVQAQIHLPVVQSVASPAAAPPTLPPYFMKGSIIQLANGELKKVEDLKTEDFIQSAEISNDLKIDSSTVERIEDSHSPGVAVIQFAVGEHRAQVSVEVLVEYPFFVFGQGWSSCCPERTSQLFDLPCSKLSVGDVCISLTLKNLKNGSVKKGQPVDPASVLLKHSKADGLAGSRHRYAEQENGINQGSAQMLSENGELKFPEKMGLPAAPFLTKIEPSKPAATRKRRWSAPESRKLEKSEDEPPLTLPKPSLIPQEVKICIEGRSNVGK", "data": [{"protein": "GST-rRNF4 (protein) MSTRNPQRKRRGGAVNSRQTQKRTRETTSTPEISLEAEPIELVETVGDEIVDLTCESLEPVVVDLTHNDSVVIVEERRRPRRNGRRLRQDHADSCVVSSDDEELSKDKDVYVTTHTPRSTKDEGTTGLRPSGTVSCPICMDGYSEIVQNGRLIVSTECGHVFCSQCLRDSLKNANTCPTCRKKINHKRYHPIYI", "values": [{"measurement": "in vitro ubiquitination assay", "result": "the unmodified Atxn1 82Q protein was not ubiquitinated"}]}]}
